Experimental data from patent publication US20120282183A1.

Tests used:
[1] = target: murine CXCR4 on mouse ES cells and mouse embryo fibroblasts (mouse) (UniProt P70658); test: cell-based or functional assay
[2] = target: murine CXCR6 on differentiated WT ES cells (mouse) (UniProt Q9EQ16); test: cell-based or functional assay
Chain of murine CXCR6 on differentiated WT ES cells (mouse) (Q9EQ16 whole entry): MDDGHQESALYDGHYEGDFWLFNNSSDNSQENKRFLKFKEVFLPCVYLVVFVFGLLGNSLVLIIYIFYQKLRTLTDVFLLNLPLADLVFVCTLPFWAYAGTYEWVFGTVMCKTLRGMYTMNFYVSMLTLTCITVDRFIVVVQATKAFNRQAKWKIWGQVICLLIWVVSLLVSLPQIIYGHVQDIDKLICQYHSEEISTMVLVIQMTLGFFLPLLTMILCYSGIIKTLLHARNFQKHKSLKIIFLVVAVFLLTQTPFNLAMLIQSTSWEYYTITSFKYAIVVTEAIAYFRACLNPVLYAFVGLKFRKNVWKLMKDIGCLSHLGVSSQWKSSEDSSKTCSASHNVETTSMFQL

Chain of murine CXCR4 on mouse ES cells and mouse embryo fibroblasts (mouse) (P70658 whole entry): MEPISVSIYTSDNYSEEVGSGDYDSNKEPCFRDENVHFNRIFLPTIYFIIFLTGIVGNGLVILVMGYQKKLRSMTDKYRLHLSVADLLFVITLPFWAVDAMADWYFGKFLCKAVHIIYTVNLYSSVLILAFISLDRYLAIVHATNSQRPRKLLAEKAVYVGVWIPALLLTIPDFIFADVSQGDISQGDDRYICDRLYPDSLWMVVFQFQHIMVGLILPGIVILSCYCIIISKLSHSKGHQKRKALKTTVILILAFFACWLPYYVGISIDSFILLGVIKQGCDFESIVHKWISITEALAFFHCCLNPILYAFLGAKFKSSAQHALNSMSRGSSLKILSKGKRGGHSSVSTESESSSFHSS

| Substance | CXCL12 chemotaxis of differentiating WT-ES cells [1] [fold] | chemotaxis of differentiated WT ES cells towards CXCL16 [2] [fold] |
| --- | --- | --- |
| chemokine CXCL12 (R&D systems) (ligand) | > 2 |  |
| chemokine CXCL16 (R&D) (ligand) |  | 2 |
